These results are taken from patent US20190270826A1.

For assay [1], the target named is human FcRn (human) (UniProt P55899). The assay can be described thus: AlphaScreen competition, human FcRn (n=1); displaced: biotinylated control mAb B21M WT IgG1 (m27); pH 6.0. A general note: Alpha assays give light when donor and acceptor beads are brought close together.
The target in assay [2] is recombinant human IL1RAP ECD (human) (UniProt Q9NPH3). Kind of assay: SPR (ProteOn).
Assay [3] concerns the target human FcγRI (human) (UniProt P12314). The assay can be described thus: AlphaScreen competition, human FcγRI (n=1); displaced: biotinylated control mAb B21M hIgG1 AlaAla; pH 7.2.

Values joined by “and” are separate entries in the source; they are usually repeats but may differ in a detail not shown here. Equal values may be shown once.

Sequence of recombinant human IL1RAP ECD (human) (Q9NPH3 other isoform, or with tags, fused parts or gaps): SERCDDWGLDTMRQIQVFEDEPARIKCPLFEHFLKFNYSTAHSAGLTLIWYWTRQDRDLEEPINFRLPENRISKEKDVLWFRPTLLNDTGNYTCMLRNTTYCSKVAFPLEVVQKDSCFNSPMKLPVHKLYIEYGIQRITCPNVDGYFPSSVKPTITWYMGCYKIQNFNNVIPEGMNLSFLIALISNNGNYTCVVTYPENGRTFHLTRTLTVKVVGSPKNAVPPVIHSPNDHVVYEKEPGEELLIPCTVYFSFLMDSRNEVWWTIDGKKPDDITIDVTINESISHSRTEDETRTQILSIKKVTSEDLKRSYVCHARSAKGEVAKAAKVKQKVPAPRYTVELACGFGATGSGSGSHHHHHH
Sequence of human FcRn (human) (P55899 24-297 limits assumed, form in doubt, chain 1 of 2): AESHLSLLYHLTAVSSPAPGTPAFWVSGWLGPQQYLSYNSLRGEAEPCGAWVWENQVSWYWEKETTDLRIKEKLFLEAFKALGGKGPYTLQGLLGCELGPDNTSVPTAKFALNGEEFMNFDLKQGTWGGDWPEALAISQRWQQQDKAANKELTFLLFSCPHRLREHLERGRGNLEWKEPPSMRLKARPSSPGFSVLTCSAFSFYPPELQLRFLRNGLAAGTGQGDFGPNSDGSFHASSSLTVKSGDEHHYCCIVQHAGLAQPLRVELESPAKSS
Sequence of human FcRn (human) (chain, as listed by the source limits assumed, form in doubt, chain 2 of 2): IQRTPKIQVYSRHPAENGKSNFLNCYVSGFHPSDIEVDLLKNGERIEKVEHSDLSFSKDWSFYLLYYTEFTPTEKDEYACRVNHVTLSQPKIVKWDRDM
Sequence of human FcγRI (human) (P12314 16-292 limits assumed): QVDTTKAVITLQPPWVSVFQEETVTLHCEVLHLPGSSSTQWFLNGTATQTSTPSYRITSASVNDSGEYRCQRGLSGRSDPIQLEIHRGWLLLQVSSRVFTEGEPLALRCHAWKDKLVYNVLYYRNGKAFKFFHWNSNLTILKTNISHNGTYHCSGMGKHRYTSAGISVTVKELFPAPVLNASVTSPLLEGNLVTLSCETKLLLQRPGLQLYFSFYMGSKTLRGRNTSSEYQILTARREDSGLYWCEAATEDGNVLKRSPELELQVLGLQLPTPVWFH

In assay [1], “Human IgG4-PAA isotype control (antibody)” showed an IC50 (read off the curve) of 200 nM.
The Kd is the concentration at which binding is half-saturated. As usually defined, the koff is a measure of how fast the partners let go of each other. One may read the kon as the rate constant with which the complex forms. For the substance “anti-human/cyno IL1RAP, mouse IgG1, R&D #MAB676 (antibody)”, in assay [2], the equilibrium dissociation constant (Kd) is 1.42 nM and 1.21 nM; the koff is 0.000369 s⁻¹ and 0.000336 s⁻¹; the kon was 260000 M⁻¹ s⁻¹ and 277000 M⁻¹ s⁻¹.
For wild type hIgG1 (antibody), the IC50 (read off the curve) in assay [1] came to 90 nM; in assay [3], 3 nM.
